Measured values as given in publication PMC6753088, “The cryo-EM structure of the acid activatable pore-forming immune effector Macrophage-expressed gene 1” (Nature Communications, 2019).

Biological target: the molecule itself
Assay: cryo-EM structure; soluble MPEG1 ectodomain, 2.0-2.5 mg/mL, 20 mM Tris-HCl pH 7.2, 0.3 M NaCl; single particle analysis; two hexadecameric rings stacked head to head (D16, C16 or C1 imposed)

Row | Protein | stoichiometry N
1 | human MPEG1 (Macrophage-expressed gene 1 / Perforin-2) soluble ectodomain, wild type (domain or fragment) KSGKPSGEMDEVGVQKCKNALKLPVLEVLPGGGWDNLRNVDMGRVMELTYSNCRTTEDGQYIIPDEIFTIPQKQSNLEMNSEILESWANYQSSTSYSINTELSLFSKVNGKFSTEFQRMKTLQVKDQAITTRVQVRNLVYTVKINPTLELSSGFRKELLDISDRLENNQTRMATYLAELLVLNYGTHVTTSVDAGAALIQEDHLRASFLQDSQSSRSAVTASAGLAFQNTVNFKFEENYTSQNVLTKSYLSNRTNSRVQSIGGVPFYPGITLQAWQQGITNHLVAIDRSGLPLHFFINPNMLPDLPGPLVKKVSKTVETAVKRYYTFNTYPGCTDLNSPNFNFQANTDDGSCEGKMTNFSFGGVYQECTQLSGNRDVLLCQKLEQKNPLTGDFSCPSGYSPVHLLSQIHEEGYNHLECHRKCTLLVFCKTVCEDVFQVAKAEFRAFWCVASSQVPENSGLLFGGLFSSKSINPMTNAQSCPAGYFPLRLFENLKVCVSQDYELGSRFAVPFGGFFSCTVGNPLVDPAISRDLGAPSLKKCPGGFSQHPALISDGCQVSYCVKSGLFTGGSLPPARLPPFTRPPLMSQAATNTVIVTNSENARSWIKDSQTHQWRLGEPIELRRAMNVIHGDGGGLS | 16
2 | human MPEG1 soluble ectodomain, L425K mutant (domain or fragment, a glycan moiety attached to TMH-2 (residue not given)) KSGKPSGEMDEVGVQKCKNALKLPVLEVLPGGGWDNLRNVDMGRVMELTYSNCRTTEDGQYIIPDEIFTIPQKQSNLEMNSEILESWANYQSSTSYSINTELSLFSKVNGKFSTEFQRMKTLQVKDQAITTRVQVRNLVYTVKINPTLELSSGFRKELLDISDRLENNQTRMATYLAELLVLNYGTHVTTSVDAGAALIQEDHLRASFLQDSQSSRSAVTASAGLAFQNTVNFKFEENYTSQNVLTKSYLSNRTNSRVQSIGGVPFYPGITLQAWQQGITNHLVAIDRSGLPLHFFINPNMLPDLPGPLVKKVSKTVETAVKRYYTFNTYPGCTDLNSPNFNFQANTDDGSCEGKMTNFSFGGVYQECTQLSGNRDVLLCQKLEQKNPLTGDFSCPSGYSPVHLLSQIHEEGYNHLECHRKCTLKVFCKTVCEDVFQVAKAEFRAFWCVASSQVPENSGLLFGGLFSSKSINPMTNAQSCPAGYFPLRLFENLKVCVSQDYELGSRFAVPFGGFFSCTVGNPLVDPAISRDLGAPSLKKCPGGFSQHPALISDGCQVSYCVKSGLFTGGSLPPARLPPFTRPPLMSQAATNTVIVTNSENARSWIKDSQTHQWRLGEPIELRRAMNVIHGDGGGLS | 16
